The values that follow come from patent CN117357474A (JIANGSU QUANXIN BIOMEDICAL CO LTD, dated 2024).

For experiment [1], the target named is T1, human IL-36R on cells (HT29 reporter cells, HT29, A431, human PBMC) (human, UniProt Q9HB29 20-575).
T1 sequence (looked up): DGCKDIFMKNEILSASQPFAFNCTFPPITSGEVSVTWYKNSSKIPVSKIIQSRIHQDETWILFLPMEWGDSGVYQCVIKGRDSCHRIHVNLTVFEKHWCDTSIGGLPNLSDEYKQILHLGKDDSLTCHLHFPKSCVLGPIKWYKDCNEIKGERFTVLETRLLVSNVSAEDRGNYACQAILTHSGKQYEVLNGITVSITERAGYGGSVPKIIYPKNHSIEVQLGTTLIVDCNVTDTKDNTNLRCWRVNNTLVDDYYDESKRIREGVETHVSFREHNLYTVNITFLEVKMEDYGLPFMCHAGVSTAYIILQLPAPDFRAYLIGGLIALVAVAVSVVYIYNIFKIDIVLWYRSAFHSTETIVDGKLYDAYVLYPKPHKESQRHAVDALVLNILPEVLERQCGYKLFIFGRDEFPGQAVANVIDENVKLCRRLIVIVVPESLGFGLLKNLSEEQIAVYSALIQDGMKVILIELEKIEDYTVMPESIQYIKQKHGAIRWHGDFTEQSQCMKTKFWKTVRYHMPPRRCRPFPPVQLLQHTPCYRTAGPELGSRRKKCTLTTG
Briefly: cell-based or functional assay.

In experiment [2] the target is T2, 人白介素-36受体 (human IL-36R), soluble antigen in the Biacore assay (human).
T2 chain: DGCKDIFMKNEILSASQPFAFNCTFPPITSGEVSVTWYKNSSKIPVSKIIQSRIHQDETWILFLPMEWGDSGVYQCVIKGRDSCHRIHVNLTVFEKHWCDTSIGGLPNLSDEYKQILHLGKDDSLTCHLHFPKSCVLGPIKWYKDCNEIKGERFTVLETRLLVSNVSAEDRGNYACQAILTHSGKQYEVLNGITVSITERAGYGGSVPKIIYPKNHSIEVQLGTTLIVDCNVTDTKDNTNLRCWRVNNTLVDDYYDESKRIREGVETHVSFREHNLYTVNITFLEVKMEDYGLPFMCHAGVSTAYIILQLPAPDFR
Put plainly: SPR, Biacore T200, antibody captured on Protein A chip, antigen in flow, 25°C, 1:1 model, mean of three runs. For orientation: In SPR one partner is held on a chip, and binding of the other changes the refractive index at the surface.

B1: QX009N(HZD25-54) (antibody, V domains shown)
VH: EVQLVESGGGLVQPGGSLRLSCAASGIDLSNYAMGWVRQAPGKGLEWVGYISGGGSAYYASWAKGRFTISRDNSKNTLYLQMNSLRAEDTAVYYCARWAIKSYFFGMDLWGQGTLVTVSS
VL: DIQMTQSPSSVSASVGDRVTITCQASEYISSYLAWYQQKPGKAPKLLIYQASTLASGVPSRFSGSGSGTDFTLTISSLQPEDFATYYCQTNNAIHTYGGAFGGGTKVEIK
As a reminder, the Kd is the constant that tells how readily two partners part at equilibrium. A high value points to lower affinity. One may read the koff as the first-order rate constant of dissociation. What is called kon is a measure of how fast the partners come together. B1: in experiment [1], the “抑制人IL-36(α、β、γ)诱导A431细胞释放CXCL-1的IC50” value amounted to 4.12 ng/mL, the “抑制人IL-36(α、β、γ)诱导A431细胞释放IL-8的IC50” value worked out at 2.89 ng/mL, the “抑制人IL-36(α、β、γ)诱导HT29细胞释放CXCL-1的IC50” value turned out to be 2.21 ng/mL and the “抑制人IL-36(α、β、γ)诱导HT29细胞释放IL-8的IC50” value came to 1.53 ng/mL. Moreover, in experiment [1], the “抑制人IL-36(α、β、γ)诱导的HT29报告基因细胞STAT3磷酸化活性的IC50” value was 2.16 ng/mL and the 抑制人IL-36β诱导的人PBMC细胞释放IL-8活性的IC50 is 4.69 ng/mL. In experiment [2], this molecule displayed a dissociation constant Kd of 0.313 nM, a koff of 3.58e-05 s⁻¹ and a kon of 114000 M⁻¹ s⁻¹.

B2: Spesolimab (self-made from the B6 sequence of US9023995B2) (antibody, V domains shown)
VH: QVQLVQSGAEVKKPGASVKVSCKASGYSFTSSWIHWVKQAPGQGLEWMGEINPGNVRTNYNENFRNKVTMTVDTSISTAYMELSRLRSDDTAVYYCTVVFYGEPYFPYWGQGTLVTVSS
VL: QIVLTQSPGTLSLSPGERATMTCTASSSVSSSYFHWYQQKPGQAPRLWIYRTSRLASGVPDRFSGSGSGTDFTLTISRLEPEDAATYYCHQFHRSPLTFGAGTKLEIK
For B2, in experiment [1], the “抑制人IL-36(α、β、γ)诱导A431细胞释放CXCL-1的IC50” value came to 22.5 ng/mL, the “抑制人IL-36(α、β、γ)诱导A431细胞释放IL-8的IC50” value is 16 ng/mL, the “抑制人IL-36(α、β、γ)诱导HT29细胞释放CXCL-1的IC50” value stood at 12.3 ng/mL and the “抑制人IL-36(α、β、γ)诱导HT29细胞释放IL-8的IC50” value was 11.5 ng/mL. In experiment [1], the “抑制人IL-36(α、β、γ)诱导的HT29报告基因细胞STAT3磷酸化的IC50” value was determined as 15.7 ng/mL and the 抑制人IL-36β诱导的人PBMC释放IL-8活性的IC50 was 26.6 ng/mL. Besides, in experiment [2], binding was put at a Kd of 0.862 nM, the koff came to 3.11e-05 s⁻¹ and the on-rate (kon) was 36000 M⁻¹ s⁻¹.
